# Experimental data reported in PMC11773478.
# Test: cell surface biotinylation, streptavidin pull-down, EPHA1 immunoblot
# Conditions: glycan lost; control: wild type
row,Protein,localisation_or_trafficking
1,EPHA1: N414A (protein) parent chain: MERRWPLGLGLVLLLCAPLPPGARAKEVTLMDTSKAQGELGWLLDPPKDGWSEQQQILNGTPLYMYQDCPMQGRRDTDHWLRSNWIYRGEEASRVHVELQFTVRDCKSFPGGAGPLGCKETFNLLYMESDQDVGIQLRRPLFQKVTTVAADQSFTIRDLVSGSVKLNVERCSLGRLTRRGLYLAFHNPGACVALVSVRVFYQRCPETLNGLAQFPDTLPGPAGLVEVAGTCLPHARASPRPSGAPRMHCSPDGEWLVPVGRCHCEPGYEEGGSGEACVACPSGSYRMDMDTPHCLTCPQQSTAESEGATICTCESGHYRAPGEGPQVACTGPPSAPRNLSFSASGTQLSLRWEPPADTGGRQDVRYSVRCSQCQGTAQDGGPCQPCGVGVHFSPGARGLTTPAVHVNGLEPYANYTFNVEAQNGVSGLGSSGHASTSVSISMGHAESLSGLSLRLVKKEPRQLELTWAGSRPRSPGANLTYELHVLNQDEERYQMVLEPRVLLTELQPDTTYIVRVRMLTPLGPGPFSPDHEFRTSPPVSRGLTGGEIVAVIFGLLLGAALLLGILVFRSRRAQRQRQQRQRDRATDVDREDKLWLKPYVDLQAYEDPAQGALDFTRELDPAWLMVDTVIGEGEFGEVYRGTLRLPSQDCKTVAIKTLKDTSPGGQWWNFLREATIMGQFSHPHILHLEGVVTKRKPIMIITEFMENGALDAFLREREDQLVPGQLVAMLQGIASGMNYLSNHNYVHRDLAARNILVNQNLCCKVSDFGLTRLLDDFDGTYETQGGKIPIRWTAPEAIAHRIFTTASDVWSFGIVMWEVLSFGDKPYGEMSNQEVMKSIEDGYRLPPPVDCPAPLYELMKNCWAYDRARRPHFQKLQAHLEQLLANPHSLRTIANFDPRMTLRLPSLSGSDGIPYRTVSEWLESIRMKRYILHFHSAGLDTMECVLELTAEDLTQMGITLPGHQKRILCSIQGFKD,decreases
2,EPHA1: N414A-N478A (protein) parent chain: MERRWPLGLGLVLLLCAPLPPGARAKEVTLMDTSKAQGELGWLLDPPKDGWSEQQQILNGTPLYMYQDCPMQGRRDTDHWLRSNWIYRGEEASRVHVELQFTVRDCKSFPGGAGPLGCKETFNLLYMESDQDVGIQLRRPLFQKVTTVAADQSFTIRDLVSGSVKLNVERCSLGRLTRRGLYLAFHNPGACVALVSVRVFYQRCPETLNGLAQFPDTLPGPAGLVEVAGTCLPHARASPRPSGAPRMHCSPDGEWLVPVGRCHCEPGYEEGGSGEACVACPSGSYRMDMDTPHCLTCPQQSTAESEGATICTCESGHYRAPGEGPQVACTGPPSAPRNLSFSASGTQLSLRWEPPADTGGRQDVRYSVRCSQCQGTAQDGGPCQPCGVGVHFSPGARGLTTPAVHVNGLEPYANYTFNVEAQNGVSGLGSSGHASTSVSISMGHAESLSGLSLRLVKKEPRQLELTWAGSRPRSPGANLTYELHVLNQDEERYQMVLEPRVLLTELQPDTTYIVRVRMLTPLGPGPFSPDHEFRTSPPVSRGLTGGEIVAVIFGLLLGAALLLGILVFRSRRAQRQRQQRQRDRATDVDREDKLWLKPYVDLQAYEDPAQGALDFTRELDPAWLMVDTVIGEGEFGEVYRGTLRLPSQDCKTVAIKTLKDTSPGGQWWNFLREATIMGQFSHPHILHLEGVVTKRKPIMIITEFMENGALDAFLREREDQLVPGQLVAMLQGIASGMNYLSNHNYVHRDLAARNILVNQNLCCKVSDFGLTRLLDDFDGTYETQGGKIPIRWTAPEAIAHRIFTTASDVWSFGIVMWEVLSFGDKPYGEMSNQEVMKSIEDGYRLPPPVDCPAPLYELMKNCWAYDRARRPHFQKLQAHLEQLLANPHSLRTIANFDPRMTLRLPSLSGSDGIPYRTVSEWLESIRMKRYILHFHSAGLDTMECVLELTAEDLTQMGITLPGHQKRILCSIQGFKD,decreases
3,EPHA1: N478A (protein) parent chain: MERRWPLGLGLVLLLCAPLPPGARAKEVTLMDTSKAQGELGWLLDPPKDGWSEQQQILNGTPLYMYQDCPMQGRRDTDHWLRSNWIYRGEEASRVHVELQFTVRDCKSFPGGAGPLGCKETFNLLYMESDQDVGIQLRRPLFQKVTTVAADQSFTIRDLVSGSVKLNVERCSLGRLTRRGLYLAFHNPGACVALVSVRVFYQRCPETLNGLAQFPDTLPGPAGLVEVAGTCLPHARASPRPSGAPRMHCSPDGEWLVPVGRCHCEPGYEEGGSGEACVACPSGSYRMDMDTPHCLTCPQQSTAESEGATICTCESGHYRAPGEGPQVACTGPPSAPRNLSFSASGTQLSLRWEPPADTGGRQDVRYSVRCSQCQGTAQDGGPCQPCGVGVHFSPGARGLTTPAVHVNGLEPYANYTFNVEAQNGVSGLGSSGHASTSVSISMGHAESLSGLSLRLVKKEPRQLELTWAGSRPRSPGANLTYELHVLNQDEERYQMVLEPRVLLTELQPDTTYIVRVRMLTPLGPGPFSPDHEFRTSPPVSRGLTGGEIVAVIFGLLLGAALLLGILVFRSRRAQRQRQQRQRDRATDVDREDKLWLKPYVDLQAYEDPAQGALDFTRELDPAWLMVDTVIGEGEFGEVYRGTLRLPSQDCKTVAIKTLKDTSPGGQWWNFLREATIMGQFSHPHILHLEGVVTKRKPIMIITEFMENGALDAFLREREDQLVPGQLVAMLQGIASGMNYLSNHNYVHRDLAARNILVNQNLCCKVSDFGLTRLLDDFDGTYETQGGKIPIRWTAPEAIAHRIFTTASDVWSFGIVMWEVLSFGDKPYGEMSNQEVMKSIEDGYRLPPPVDCPAPLYELMKNCWAYDRARRPHFQKLQAHLEQLLANPHSLRTIANFDPRMTLRLPSLSGSDGIPYRTVSEWLESIRMKRYILHFHSAGLDTMECVLELTAEDLTQMGITLPGHQKRILCSIQGFKD,decreases
